Laboratory results published in the supplement of paper PMC9170038.

Key:
MS2 coat protein [1] = assay: apparent KD of MS2 coat protein; higher = weaker reporter binding; conditions: Eterna round: R101
Description: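 RNA-MaP: designed FMN/MS2 RNA switches (84 nt design region) are transcribed on-chip within common flanks and titrated with SNAP-549-labelled MS2 coat protein (about 1-3000 nM) in 100 mM Tris pH 7.5, 80 mM KCl, 4 mM MgCl2, without or with 200 uM FMN. Median apparent KD per design; activation ratio = KD,OFF / KD,ON.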

MS2 coat protein [2] = assay: apparent KD of MS2 coat protein, switch ON state; designed switch direction (-1 OFF switch, 1 ON switch): 1; higher = weaker reporter binding; conditions: FMN input: 0 or 200 uM; Eterna round: R93 (includes R88 designs)
Outline: (§1)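 Titrations with SNAP-549-labelled MS2 coat protein ran in twofold steps from 0.7 or 1.5 nM to 3 µM, each step taking 0.8–1.5 h at the start and 10–20 min toward the end. The targets were designed RNA switches transcribed on-chip from Illumina sequencing clusters, held in 100 mM Tris-HCl pH 7.5, 80 mM KCl, 4 mM MgCl2, without or with constant ligand. Apparent KD was taken per design as the median of normalised cluster binding-curve fits.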

MS2 coat protein [3] = assay: apparent KD of MS2 coat protein, switch OFF state (with FMN for OFF switches, without FMN for ON switches); designed switch direction (-1 OFF switch, 1 ON switch): 1; higher = weaker reporter binding; conditions: FMN input: 0 or 200 uM; Eterna round: R93 (includes R88 designs)
Outline: as §1

Sequence	apparent KD of MS2 coat protein (MS2 coat protein [1]; input ligand: FMN 200 uM)	apparent KD of MS2 coat protein (MS2 coat protein [1]; input ligand: none)	apparent KD of MS2 coat protein (MS2 coat protein [2])	apparent KD of MS2 coat protein (MS2 coat protein [3])
AAAGAUUUUCAAGGAUAUCAGUGGCAAAGCCACUGAGAAGGUGAGGAUCACCCACCUACGUGACGCUGGAAACAGCGUCACGAA [#SharedSequence ExNG1 - 26] (puzzle (switch architecture): Exclusion NG 1)	64.5 nM	21 nM	–	–
AAAUAAAUCGAAGGAUAUCAGGGUGCACCUCAGUAAAACUGAGGUGCACCCUGAGAAGGUCGAGGAUCACCCGAUCUAAAUAAA [#SharedSequence SLExNG1: 2-2] (puzzle (switch architecture): Small Loop Exclusion NG 1)	114 nM	19.3 nM	–	–
AAAUAACUUGAAGGAUAUGACCCUCGAGGUGACUAAAAGUCACCUCGAGGGUCAGAAGGUCGAGGAUCACCCGACCUAGUGAAA [#SharedSequence SLExNG1: 7-1] (puzzle (switch architecture): Small Loop Exclusion NG 1)	7.61 nM	7.54 nM	–	–
AUAAUAAACUGUGAGGAUAUCCAUAAUAAAACAUGAGGAUCACCCAUGUGUAGAUAAUAAUAAUGGGAGAAGGCACAUAAUAAUA [Mat - Same state - Mayanna Mod - D102]	–	–	19.6 nM	26.2 nM
AUAUAAAUAAGGUAGGAUAUACUAAAGUAAACAUGAGGAUCACCCAUGUGAAGAAAGAAACUCAUGUAGAAGGACCAUAUAUAUA [viburnum 2]	–	–	27.2 nM	248 nM
AUAUAUAUAAGGUAGGAUAUACUAAAGUAAACAUGAGGAUCACCCAUGUAAAGAAAGAAACUCAUGUAGAAGGACCAUAUAUAUA [Original: 77%, More Tesla, 1]	–	–	21.3 nM	99.9 nM
AUAUGAGCUAUGGAGGAUAUCCAUAACAAGACAUGAGGAUCACCCAUGUAAUCAAAACAAUAAUGGGAGAAGGCCAUAGCUCAAU [SS 2 M47]	–	–	76.3 nM	50.9 nM
AUUAUUAUUACGCAGGAUAUCGAGGUUUUUACAUGAGGAUCACCCAUGUUUUUUUUUUUAUAUUACGAGAAGGGCGAUAUUAUUA [salish99-SS2-01]	–	–	22.9 nM	21.9 nM
CAGAGACAUGAGGAUCACCCAUGUAGGAUUAUGGGAGGAUAUACAAAGACGAGAGUCAGAGUAGAAGGCCUAGGAC [salish99-ss1-144]	–	–	20.8 nM	45.6 nM
CAGGGACAUGAGGAUCACCCAUGUGGGAUUAUGGGAGGAUAUACAAAGACGAGAGUCAGAGUAGAAGGCCUAGGAC [salish99-ss1-128]	–	–	37.3 nM	85.7 nM
CGGAAGGAGAGAGAGGAUAUCCAAAGGAAAACAUGAGGAUCACCCAUGUAGAAGGUAGGAAAUUGGGAGAAGGCUCAAGAGAGAG [salish99-ss2-119(!)]	–	–	37.4 nM	51.4 nM
CGGAGACAUGAGGAUCACCCAUGUGAGAAGAGGCGAGGAUAUCGAAAGAAAGAAGAGAAACGAGAAGGCGCGAGCU [salish99-SS1-072]	–	–	23.1 nM	27.6 nM
CUCAGGAAGAGAGAGGAUAUCCAAAGGAAAACAUGAGGAUCACCCAUGUAAAAGGUAGGAAAUUGGGAGAAGGCUCAAGAGAGAG [salish99-ss2-096]	–	–	22.3 nM	40 nM
CUGGACAUAGUACAGGAUAUAUGAAUAGUCACAUGAGGAUCACCCAUGUCCAUUUAUAUGGGCACAUAGAAGGGUGGUAGUUAAG [Mat - Same state - Malcolm Mod - D139]	–	–	4.52 nM	41.2 nM
CUUAGACAUGAGGAUCACCCAUGUCGAACAAACAAAGGAUAUGGGAGCCGAAGACGGCUAUUAGAAGGUUGCAAAA [Anrioned]	–	–	28 nM	26.4 nM
GAAAAACAUGAGGAUCACCCAUGUAGAAAUAUGGGAGGAUAUACGAAGACGAAAGUCAAAGUAGAAGGCCUAAGAA [Mat - Same State 1 - Eli mod - D109]	–	–	21.7 nM	87.8 nM
GAAAAACAUGAGGAUCACCCAUGUCAAUAUAUGGGAGGAUAUACAAAGACGAAAGUCAAAGUAGAAGGCCUAAAAG	–	–	18.3 nM	66.4 nM
GAAAAACAUGAGGAUCACCCAUGUGAAAAUAUGGGAGGAUAUACGAAGACGAAAGUCAAAGUAGAAGGCCUAAAAG [Garnet 31]	–	–	23.8 nM	87.9 nM

Sequence	apparent KD of MS2 coat protein (MS2 coat protein [1]; input ligand: FMN 200 uM)	apparent KD of MS2 coat protein (MS2 coat protein [1]; input ligand: none)	apparent KD of MS2 coat protein (MS2 coat protein [2])	apparent KD of MS2 coat protein (MS2 coat protein [3])
GAAGAACAUGAGGAUCACCCAUGUGUAGAAGCAUGAGGAUAUGUAAGUCAAAGAAAAACGAUAGAAGGCAUGGAGA [JR_SS001_Sub1714]	–	–	141 nM	119 nM
GAAGACAUAGUUCAGGAUAUGGGAAUAGUCACAUGAGGAUCACCCAUGUGCAUUUAUAUGCGCGCUCAGAAGGGAGGUAGAUAUA [SameState2 Malc#19]	–	–	21 nM	33.5 nM
GACUGACAUGAGGAUCACCCAUGUAUUCAAACAUGAGGAUAUAUGACACGUCAUCGACGGAUAGAAGGCAUAGAUG [JR_SS001_Sub1210]	–	–	163 nM	205 nM
GAGAGACAUGAGGAUCACCCAUGUAGGAUUAUGGGAGGAUAUACAAAGACGAGAGUCAGAGUAGAAGGCCUAGGAC [salish99-ss1-140]	–	–	23.4 nM	56.7 nM
GAUAAACAUGAGGAUCACCCAUGUAGAUAUAUGGGAGGAUAUACAAAGACGAUAGUCAAAGUAGAAGGCCUAAAAG [77%, Mat - Mod of Eli - With 3 more U's]	–	–	28.6 nM	79.2 nM
GCAGGGCCACACUAGGAUAUGGGUGUCUAGACAUGAGGAUCACCCAUGUUAUGGCAAAACAAAGCUCAGAAGGAGUCGUGGCCCA [Tizasozaer]	–	–	11.8 nM	36 nM
GCCUAACAUGAGGAUCACCCAUGUAGUGGGUUGUUAGGAUAUGGGCCGCAUUACGCUGCACCAGAAGGAAUAGAAG [Rasoraer]	–	–	319 nM	475 nM
GGAAAACAUGAGGAUCACCCAUGUAGAAAUAUGGGAGGAUAUACAAAGACGAAAGUCAAAGUAGAAGGCCUAAAAG [salish99-SS1-084]	–	–	33.9 nM	60.2 nM
GGGAAGAAGAGAGAGGAUAUCCAAAGGAAAACAUGAGGAUCACCCAUGUAAAAGGAAGGAAAUUGGGAGAAGGCUCAAAAGAGGA [salish99-ss2-025]	–	–	21.6 nM	51.6 nM
GUCCAACAUGAGGAUCACCCAUGUGCAUGACACCGAGGAUAUGGGACUAAAGGUGCUGGACCAGAAGGCGGAAGAA [Laceus]	–	–	27.1 nM	45.8 nM
GUGAAGGAGAGAGAGGAUAUCCAAAGGAAAACAUGAGGAUCACCCAUGUAGAAGGUAGGAAAUUGGGAGAAGGCUCAAGAGAGAG [salish99-ss2-114]	–	–	27 nM	39.5 nM
GUGGUACAUGAGGAUCACCCAUGUGUGGGAGCAUGAGGAUAUGUCAGUCCAUGAAAUACGAUAGAAGGCAUGGUGA [JR_SS001_Sub1712]	–	–	234 nM	264 nM
UAAAAACAUGAGGAUCACCCAUGUAGAAAUAUGGGAGGAUAUACAAAGACGAAAGUCAAAGUAGAAGGCCUAAAAU [Mat - Same State 1 - Eli mod - 32]	–	–	16.5 nM	62.2 nM
UACAGACAUGAGGAUCACCCAUGUAGAAUUAUGGGAGGAUAUACAAAGACGAGAGUCAGAGUAGAAGGCCUAGGAG [salish99-ss1-165]	–	–	25.2 nM	56.9 nM
UAUAGACAUGAGGAUCACCCAUGUAGAAUUAUGGGAGGAUAUACAAAGACGAGAGUCAGAGUAGAAGGCCUAGGAG [salish99-ss1-153]	–	–	31.8 nM	63.4 nM
UCCUUACAUGAGGAUCACCCAUGUCGCAGGAAUCAAGGAUAUGGGACCGCAAGACGGAAACCAGAAGGUGAAAUAU [Gedizala]	–	–	181 nM	287 nM
UUUAAUUAUACGAAGGAUAUCGGUAAUUAGACAUGAGGAUCACCCAUGUUAUAUGGUUCCAUAUUCGAGAAGGUCGCGGGUGAAC [JR_SS002_Sub508]	–	–	45.6 nM	19.3 nM
UUUAAUUGCGGGCAGGAUAUGUAUUAAAAUACAUGAGGAUCACCCAUGUGCGGGUGUAACACCCGACAGAAGGGCCAAUCGCGAC [Bearisan]	–	–	64.7 nM	300 nM
